From paper PMC4914113, “Another look at the mechanism involving trimeric dUTPases in Staphylococcus aureus pathogenicity island induction involves novel players in the party” (Nucleic Acids Research, 2016)

Target: Dut80α^ΔVI, Dut80α lacking motif VI (Staphylococcus aureus phage 80α)
Test: BLI; BLItz; His-tagged Dut immobilised at 1 μM on Ni-NTA biosensors, Stl in solution (at least five dilutions, 4 to 0.062 μM); buffer STL (400 mM NaCl, 75 mM HEPES pH 7.5, 5 mM MgCl2, 2 mM DTT); no nucleotide; 1:1 model

Q: “Stl repressor from SaPIbov1 (natural protein)” was tested. Which Kd did it give?
A: Its Kd is > 1000 nM.
